From patent publication US20110251375A1 come the findings set out here.

Read-outs that look alike come from different tables or passages of the source.

Experiment [1] has as its target hen egg lysozyme (hen) (UniProt P00698). Description: ELISA, no periplasmic extract; anti-His4 and anti-mouse HRP on HEL coated at 3.125 µg/ml.
For experiment [2] the target is unchanged. In words: ELISA, no periplasmic extract; anti-His4 and anti-mouse HRP on HEL coated at 12.5 µg/ml. In general terms: ELISA stands for enzyme-linked immunosorbent assay.
For experiment [3] the target is unchanged. In words: ELISA, no periplasmic extract; anti-His4 and anti-mouse HRP on HEL coated at 100 µg/ml.
Experiment [4] has the same target. Description: ELISA, no periplasmic extract; anti-His-(4) and goat anti-mouse IgG-HRP alone on coated HEL (20 µg/ml); negative control, no-antigen well 0.018.
Experiment [5] has the same target. In words: ELISA, no periplasmic extract; anti-His4 and anti-mouse HRP on coated HEL (100 µg/ml), 12 parallel readings.
For experiment [6] the target is unchanged. Description: ELISA, no periplasmic extract; anti-His4 and anti-mouse HRP on HEL coated at 200 µg/ml.
The target of experiment [7] is recombinant human Erythropoietin (rhEPO) (human) (UniProt P01588). Description: ELISA, no periplasmic extract; anti-His-(4) and goat anti-mouse IgG-AP alone on coated rhEPO; negative control, no-antigen well 0.090.
Experiment [8] deals with hen egg lysozyme (hen) (UniProt P00698). In words: ELISA, no periplasmic extract; anti-His4 and anti-mouse HRP on HEL coated at 0.39 µg/ml.
For experiment [9] the target is unchanged. In words: ELISA, no periplasmic extract; anti-His4 and anti-mouse HRP on HEL coated at 6.25 µg/ml.
The target is the same in experiment [10]. In words: ELISA, no periplasmic extract; anti-His4 and anti-mouse HRP on HEL coated at 50 µg/ml.
For experiment [11] the target is unchanged. Description: ELISA, no periplasmic extract; anti-His4 and anti-mouse HRP on HEL coated at 1.55 µg/ml.
Experiment [12] has the same target. In words: ELISA, no periplasmic extract; anti-His4 and anti-mouse HRP on HEL coated at 25 µg/ml.
Experiment [13] has the same target. Description: ELISA, no periplasmic extract; anti-His4 and anti-mouse HRP on coated HEL (100 µg/ml), 12 parallel readings. This is another data set of the same source.

UniProt P00698, sequence (P00698 19-147 limits assumed): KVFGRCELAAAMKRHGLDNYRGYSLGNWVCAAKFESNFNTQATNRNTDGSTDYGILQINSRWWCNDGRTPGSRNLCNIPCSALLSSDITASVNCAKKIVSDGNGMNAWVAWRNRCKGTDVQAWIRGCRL
UniProt P01588, sequence (P01588 28-192 limits assumed): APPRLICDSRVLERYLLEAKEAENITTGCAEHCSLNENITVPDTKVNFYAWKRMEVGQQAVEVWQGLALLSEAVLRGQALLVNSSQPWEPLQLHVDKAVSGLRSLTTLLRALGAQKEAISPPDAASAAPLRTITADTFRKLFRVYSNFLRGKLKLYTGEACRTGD

Consider anti-His4 antibody (Qiagen), for which the ELISA absorbance (no periplasmic extract) came out at 0.017 A 492/620 with hen egg lysozyme (hen) [1]; 0.038 A 492/620 with hen egg lysozyme (hen) [2]; 0.36 A 492/620 with hen egg lysozyme (hen) [3]; 0.449 A 492/620 with hen egg lysozyme (hen) [6]; 0.007 A 492/620 with hen egg lysozyme (hen) [8]; 0.023 A 492/620 in the experiment with hen egg lysozyme (hen) [9]. Moreover, the ELISA absorbance (no periplasmic extract) worked out at 0.165 A 492/620 in the experiment with hen egg lysozyme (hen) [10], 0.013 A 492/620 with hen egg lysozyme (hen) [11] and 0.072 A 492/620 with hen egg lysozyme (hen) [12]. Further, the absorbance, no periplasmic extract (control) turned out to be 0.11 A 492/620 nm with hen egg lysozyme (hen) [4] and 0.095 A 405/620 nm in experiment [7]. The A 492/620 background (antigen alone) with hen egg lysozyme (hen) [5] stood at 0.176 A 492/620; with hen egg lysozyme (hen) [13], 0.133 A 492/620.
